Data taken from IntAct's records for PubMed 28497574.

B1: Methylmalonic aciduria type A protein, mitochondrial (Homo sapiens), Q8IVH4 (parent)
chain: MPMLLPHPHQHFLKGLLRAPFRCYHFIFHSSTHLGSGIPCAQPFNSLGLHCTKWMLLSDGLKRKLCVQTTLKDHTEGLSDKEQRFVDKLYTGLIQGQRACLAEAITLVESTHSRKKELAQVLLQKVLLYHREQEQSNKGKPLAFRVGLSGPPGAGKSTFIEYFGKMLTERGHKLSVLAVDPSSCTSGGSLLGDKTRMTELSRDMNAYIRPSPTRGTLGGVTRTTNEAILLCEGAGYDIILIETVGVGQSEFAVADMVDMFVLLLPPAGGDELQGIKRGIIEMADLVAVTKSDGDLIVPARRIQAEYVSALKLLRKRSQVWKPKVIRISARSGEGISEMWDKMKDFQDLMLASGELTAKRRKQQKVWMWNLIQESVLEHFRTHPTVREQIPLLEQKVLIGALSPGLAADFLLKAFKSRD
partner: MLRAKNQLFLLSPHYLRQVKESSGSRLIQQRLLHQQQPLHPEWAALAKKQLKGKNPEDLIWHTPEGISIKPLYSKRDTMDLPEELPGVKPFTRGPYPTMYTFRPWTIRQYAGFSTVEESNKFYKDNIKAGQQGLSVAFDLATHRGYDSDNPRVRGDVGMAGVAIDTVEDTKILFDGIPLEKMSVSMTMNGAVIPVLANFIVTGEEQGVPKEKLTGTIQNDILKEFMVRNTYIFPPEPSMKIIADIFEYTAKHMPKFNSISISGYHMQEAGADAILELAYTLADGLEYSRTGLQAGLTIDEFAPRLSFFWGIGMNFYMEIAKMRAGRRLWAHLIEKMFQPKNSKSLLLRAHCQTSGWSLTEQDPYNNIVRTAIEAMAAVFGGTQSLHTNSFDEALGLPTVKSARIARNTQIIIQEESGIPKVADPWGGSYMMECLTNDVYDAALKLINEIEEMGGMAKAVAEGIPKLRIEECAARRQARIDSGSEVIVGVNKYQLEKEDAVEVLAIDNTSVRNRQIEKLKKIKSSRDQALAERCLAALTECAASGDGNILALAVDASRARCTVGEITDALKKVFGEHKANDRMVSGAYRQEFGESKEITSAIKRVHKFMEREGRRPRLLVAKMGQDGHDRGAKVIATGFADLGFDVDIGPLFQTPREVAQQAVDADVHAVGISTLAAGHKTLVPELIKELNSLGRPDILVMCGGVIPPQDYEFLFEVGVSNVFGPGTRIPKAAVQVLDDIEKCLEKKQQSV

Variants of: B1
Conditions: with muta_human MMUT

Variant | effect of a mutation on the interaction
MPMLLPHPHQHFLKGLLRAPFRCYHFIFHSSTHLGSGIPCAQPFNSLGLHCTKWMLLSDGLKRKLCVQTTLKDHTEGLSDKEQRFVDKLYTGLIQGQRACLAEAITLVESTHSRKKELAQVLLQKVLLYHREQEQSNKGKPLAFRVGLSGPPGAGKSTFIEYFGKMLTERGHKLSVLAVDPSSCTSGGSLLGDKTRMTELSRDMNAYIRPSPTRGTLGGVTRTTNEAILLCEGAGYDIILIETVGVGQSEFAVADMVDMFVLLLPPAGGDELQGIERGIIEMADLVAVTKSDGDLIVPARRIQAEYVSALKLLRKRSQVWKPKVIRISARSGEGISEMWDKMKDFQDLMLASGELTAKRRKQQKVWMWNLIQESVLEHFRTHPTVREQIPLLEQKVLIGALSPGLAADFLLKAFKSRD [K276E] | decreasing interaction strength
MPMLLPHPHQHFLKGLLRAPFRCYHFIFHSSTHLGSGIPCAQPFNSLGLHCTKWMLLSDGLKRKLCVQTTLKDHTEGLSDKEQRFVDKLYTGLIQGQRACLAEAITLVESTHSRKKELAQVLLQKVLLYHREQEQSNKGKPLAFRVGLSGPPGAGKSTFIEYFGKMLTERGHKLSVLAVDPSSCTSGGSLLGDKTRMTELSRDMNAYISPSPTRGTLGGVTRTTNEAILLCEGAGYDIILIETVGVGQSEFAVADMVDMFVLLLPPAGGDELQGIKRGIIEMADLVAVTKSDGDLIVPARRIQAEYVSALKLLRKRSQVWKPKVIRISARSGEGISEMWDKMKDFQDLMLASGELTAKRRKQQKVWMWNLIQESVLEHFRTHPTVREQIPLLEQKVLIGALSPGLAADFLLKAFKSRD [R209S] | disrupting interaction strength
MPMLLPHPHQHFLKGLLRAPFRCYHFIFHSSTHLGSGIPCAQPFNSLGLHCTKWMLLSDGLKRKLCVQTTLKDHTEGLSDKEQRFVDKLYTGLIQGQRACLAEAITLVESTHSRKKELAQVLLQKVLLYHREQEQSNKGKPLAFRVGLSGPPGAGKSTFIEYFGKMLTERGHKLSVLAVDPSSCTSGGSLLGDKTQMTELSRDMNAYIRPSPTRGTLGGVTRTTNEAILLCEGAGYDIILIETVGVGQSEFAVADMVDMFVLLLPPAGGDELQGIKRGIIEMADLVAVTKSDGDLIVPARRIQAEYVSALKLLRKRSQVWKPKVIRISARSGEGISEMWDKMKDFQDLMLASGELTAKRRKQQKVWMWNLIQESVLEHFRTHPTVREQIPLLEQKVLIGALSPGLAADFLLKAFKSRD [R196Q] | with no effect
MPMLLPHPHQHFLKGLLRAPFRCYHFIFHSSTHLGSGIPCAQPFNSLGLHCTKWMLLSDGLKRKLCVQTTLKDHTEGLSDKEQRFVDKLYTGLIQGQRACLAEAITLVESTHSRKKELAQVLLQKVLLYHREQEQSNKGKPLAFRVGLSGPPGAGKSTFIEYFGKMLTERGHKLSVLAVDPSSCTSGGSLLGDKTRMTELSRDMNAYIRPSPTRGTLGGVTRTTNEAILLCEGAGYDIILIETVGVGQSEFAVADMVDMFVLLLPPAGGDELQGIKRGIIEMADLVAVTKSDGDLIVPARRIQAEYVSALKLLRKRSQVWKPKVIRISARSGEGISEMWDKMKDFQDLMLASGELTAKGRKQQKVWMWNLIQESVLEHFRTHPTVREQIPLLEQKVLIGALSPGLAADFLLKAFKSRD [R359G] | decreasing interaction strength
MPMLLPHPHQHFLKGLLRAPFRCYHFIFHSSTHLGSGIPCAQPFNSLGLHCTKWMLLSDGLKRKLCVQTTLKDHTEGLSDKEQRFVDKLYTGLIQGQRACLAEAITLVESTHSRKKELAQVLLQKVLLYHREQEQSNKGKPLAFRVELSGPPGAGKSTFIEYFGKMLTERGHKLSVLAVDPSSCTSGGSLLGDKTRMTELSRDMNAYIRPSPTRGTLGGVTRTTNEAILLCEGAGYDIILIETVGVGQSEFAVADMVDMFVLLLPPAGGDELQGIKRGIIEMADLVAVTKSDGDLIVPARRIQAEYVSALKLLRKRSQVWKPKVIRISARSGEGISEMWDKMKDFQDLMLASGELTAKRRKQQKVWMWNLIQESVLEHFRTHPTVREQIPLLEQKVLIGALSPGLAADFLLKAFKSRD [G147E] | disrupting interaction strength
MPMLLPHPHQHFLKGLLRAPFRCYHFIFHSSTHLGSGIPCAQPFNSLGLHCTKWMLLSDGLKRKLCVQTTLKDHTEGLSDKEQRFVDKLYTGLIQGQGACLAEAITLVESTHSRKKELAQVLLQKVLLYHREQEQSNKGKPLAFRVGLSGPPGAGKSTFIEYFGKMLTERGHKLSVLAVDPSSCTSGGSLLGDKTRMTELSRDMNAYIRPSPTRGTLGGVTRTTNEAILLCEGAGYDIILIETVGVGQSEFAVADMVDMFVLLLPPAGGDELQGIKRGIIEMADLVAVTKSDGDLIVPARRIQAEYVSALKLLRKRSQVWKPKVIRISARSGEGISEMWDKMKDFQDLMLASGELTAKRRKQQKVWMWNLIQESVLEHFRTHPTVREQIPLLEQKVLIGALSPGLAADFLLKAFKSRD [R98G] | disrupting interaction strength
MPMLLPHPHQHFLKGLLRAPFRCYHFIFHSSTHLGSGIPCAQPFNSLGLHCTKWMLLSDGLKRKLCVQTTLKDHTEGLSDKEQRFVDKLYTGLIQGQRACLAEAITLVESTHSRKKELAQVLLQKVLLYHREQEQSNKGKPLAFRVGLSGPPGAGKSTFIEYFGKMLTERGHKLSVLAVDPSSCTSGGSLLGDKTRMTELSRDMNAYIRPSPTRGTLGGVTRTTNEAILLCEGAGYDIILIETVGVGQSKFAVADMVDMFVLLLPPAGGDELQGIKRGIIEMADLVAVTKSDGDLIVPARRIQAEYVSALKLLRKRSQVWKPKVIRISARSGEGISEMWDKMKDFQDLMLASGELTAKRRKQQKVWMWNLIQESVLEHFRTHPTVREQIPLLEQKVLIGALSPGLAADFLLKAFKSRD [E250K] | decreasing interaction strength

Variants of: B1
Conditions: with muta_human MMUT
Remark: another data set of the same source

Variant | effect of a mutation on the interaction
MPMLLPHPHQHFLKGLLRAPFRCYHFIFHSSTHLGSGIPCAQPFNSLGLHCTKWMLLSDGLKRKLCVQTTLKDHTEGLSDKEQRFVDKLYTGLIQGQRACLAEAITLVESTHSRKKELAQVLLQKVLLYHREQEQSNKGKPLAFRVGLSGPPGAGKSTFIEYFGKMLTERGHKLSVLAVDPSSCTSGGSLLGDKTRMTELSRDMNAYIRPSPTRGTLGGVTRTTNEAILLCEGAGYDIILIENVGVGQSEFAVADMVDMFVLLLPPAGGDELQGIKRGIIEMADLVAVTKSDGDLIVPARRIQAEYVSALKLLRKRSQVWKPKVIRISARSGEGISEMWDKMKDFQDLMLASGELTAKRRKQQKVWMWNLIQESVLEHFRTHPTVREQIPLLEQKVLIGALSPGLAADFLLKAFKSRD [T243N] | disrupting interaction strength
